Measured values from US20260241018A1 (BIOCYTOGEN PHARMACEUTICALS BEIJING, published 2026).

How the values were obtained:
Experiment in all cases: SPR (Biacore 8K), antibody captured on Protein A chip, His-tagged 5T4 as analyte
[1] = target: T1, His-tagged 5T4 protein of human (h5T4, ACRO Biosystems Inc., Cat #: TPG-H52E5) (human, UniProt Q13641 32-355)
T1 construct: Bought protein; not shown: His tag
T1 sequence (looked up): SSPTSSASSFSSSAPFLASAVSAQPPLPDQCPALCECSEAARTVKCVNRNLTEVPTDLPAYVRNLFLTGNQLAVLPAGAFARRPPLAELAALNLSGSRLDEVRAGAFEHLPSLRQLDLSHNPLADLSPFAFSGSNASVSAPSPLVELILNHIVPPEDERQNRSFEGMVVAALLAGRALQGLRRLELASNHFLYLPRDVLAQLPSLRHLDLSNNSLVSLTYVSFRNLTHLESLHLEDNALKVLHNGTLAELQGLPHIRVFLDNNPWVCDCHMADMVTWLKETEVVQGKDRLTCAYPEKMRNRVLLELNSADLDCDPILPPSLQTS
Protocol: (§1) Purified anti-5T4 antibodies were diluted to 2 μg/mL and then injected into the Biacore™ 8K biosensor at 10 μL/min for about 50 seconds to achieve a desired protein density (e.g., about 50 response units (RU)). His-tagged 5T4 protein at a concentration of 200 nM was then injected at 30 μL/min for 180 seconds. Dissociation was monitored for 400 seconds. The chip was regenerated after the last injection of each titration with Glycine (pH 2.0), 30 μL/min for 30 seconds. For ISO control, an antibody targeting an irrelevant target protein was used.
(§2) As a person of ordinary skill in the art would understand, the same method with appropriate adjustments for parameters (e.g., antibody concentration) was performed for each tested antibody.

[2] = target: T2, His-tagged 5T4 protein of mouse (m5T4, ACRO Biosystems Inc., Cat #: TPG-M52H3) (mouse, UniProt Q9Z0L0 32-361, limits assumed)
T2 construct: Bought protein; not shown: His tag
T2 sequence (looked up): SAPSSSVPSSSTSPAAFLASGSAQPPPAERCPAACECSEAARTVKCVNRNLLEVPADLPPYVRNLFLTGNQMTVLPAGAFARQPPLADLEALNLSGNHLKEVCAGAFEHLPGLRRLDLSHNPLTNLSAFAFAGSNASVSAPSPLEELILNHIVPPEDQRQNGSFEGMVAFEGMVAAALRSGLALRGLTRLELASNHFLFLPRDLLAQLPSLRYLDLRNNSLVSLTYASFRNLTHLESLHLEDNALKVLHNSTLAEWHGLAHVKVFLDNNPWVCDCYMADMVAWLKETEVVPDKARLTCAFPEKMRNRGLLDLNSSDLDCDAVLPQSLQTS
Protocol: as §1, §2

[3] = target: T3, His-tagged 5T4 protein of monkey (fas5T4, ACRO Biosystems Inc., Cat #: TPG-C52H3) (monkey, UniProt Q4R8Y9 35-355)
T3 construct: Bought protein
T3 sequence: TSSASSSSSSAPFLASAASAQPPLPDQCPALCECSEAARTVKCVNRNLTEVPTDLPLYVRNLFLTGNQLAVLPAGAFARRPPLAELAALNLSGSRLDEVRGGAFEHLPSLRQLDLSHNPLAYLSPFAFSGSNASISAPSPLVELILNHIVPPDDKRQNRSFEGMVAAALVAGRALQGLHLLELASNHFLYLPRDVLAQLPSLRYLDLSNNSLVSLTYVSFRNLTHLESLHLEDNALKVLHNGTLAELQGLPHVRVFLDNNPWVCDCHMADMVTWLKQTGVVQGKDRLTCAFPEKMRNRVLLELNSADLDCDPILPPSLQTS
Protocol: as §1, §2

Kd [1]: 22.5 nM | koff [1]: 0.00292 s⁻¹ | kon [1]: 130000 M⁻¹ s⁻¹ | binding result [2]: no binding (tested: 200 nM) | Kd [3]: 55.1 nM | koff [3]: 0.00545 s⁻¹ | kon [3]: 99000 M⁻¹ s⁻¹
B1: MAB2 analog-SI (antibody, V domains shown)
VH: QVQLQQPGAELVKPGASVKMSCKASGYTFTSYWITWVKQRPGQGLEWIGDIYPGSGRANYNEKFKSKATLTVDTSSSTAYMQLSSLTSEDSAVYNCARYGPLFTTVVDPNSYAMDYWGQGTSVTVSS
VL: DVLMTQTPLSLPVSLGDQASISCRSSQSIVYSNGNTYLEWYLQKPGQSPKLLIYKVSNRFSGVPDRFSGSGSGTDFTLKISRVEAEDLGVYYCFQGSHVPFTFGSGTKLEIK
notes: MAB2 is a humanized IgG1 monoclonal antibody targeting 5T4
